Source: patent US20160102123A1

Key:
A2_F24 VI56IV (RSV A2) = A2_F24 VI56IV (RSV A2) (UniProt P03420); experiment: Octet BLI endpoint, CR9501 on sensor, culture supernatant
B1_N67I, S215P (RSV B1) = B1_N67I, S215P (RSV B1) (UniProt O36634); experiment: quantitative Octet, CR9501 on sensor, culture supernatant
[1] = target: B1_N67I, S215P loop (RSV B1) (UniProt O36634); experiment: as above

Substance CR9501 (antibody) has a % CR9501 binding after 5 days at 4 C relative to day 1 (A2_F24 VI56IV (RSV A2)) of 54%, a % concentration measured with CR9501 after 5 days at 4 C relative to day of harvest (B1_N67I, S215P (RSV B1)) of 90.9% and a % concentration measured with CR9501 after 5 days at 4 C relative to day of harvest [1] of 108%.
